Assay results as given in US20260242478A1 (published 2026).
Where no end group is shown, it is not given here.

Experiments:
[1] = target: T1, Anti-PSMA Fab (SEQ ID NOs: 19, 20); assay: phage ELISA; captured PSMA Fab pre-incubated with PSMA antigen as competitor, anti-M13 HRP detection
T1 construct: Biotinylated and captured on neutravidin coated plates in the phage ELISA; also called 006 PSMA Fab
Experimental: (§1) Clonal phage were harvested as crude supernatants and screened via standard ELISAs. […] Prior to the addition of clonal phage. wells were incubated with blocking buffer and PSMA antigen or blocking buffer alone. Without washing or aspirating, clonal phage supernatants were then added to the wells and incubated for a short time. Wells were then washed followed by detection of bound phage using a horse radish conjugated anti-M13 antibody.

[2] = target: T1, Anti-PSMA Fab (SEQ ID NOs: 19, 20); assay: phage ELISA; biotinylated PSMA Fab captured on neutravidin plate, clonal phage supernatant, anti-M13 HRP detection
Experimental: as §1

[3] = target: T2, Anti-PSMA Fab (SEQ ID NOs: 19, 20); assay: phage binding ELISA; biotinylated PSMA Fab on neutravidin plate, clonal phage detected with anti-M13-HRP
T2 construct: Biotinylated and captured on neutravidin coated plates in the phage ELISA; also called 006 PSMA Fab
Experimental: as §1

[4] = target: T2, Anti-PSMA Fab (SEQ ID NOs: 19, 20); assay: phage binding ELISA; Fab-coated wells pre-incubated with PSMA antigen as competitor, anti-M13-HRP detection;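 note: clonal phage supernatants screened, with reference wells given blocking buffer only (no PSMA antigen) before phage were added for a brief incubation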
Experimental: as §1

[5] = target: T3, Anti-PSMA Fab (SEQ ID NOs: 19, 20); assay: phage ELISA; PSMA Fab on plate pre-incubated with PSMA antigen as competitor, anti-M13 HRP detection;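 note: crude clonal phage supernatants added to Fab-coated wells still holding PSMA antigen in blocking buffer, with bound phage as read-out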
T3 construct: Biotinylated PSMA Fab captured on neutravidin coated plates in the phage ELISA; also called 006 PSMA Fab
Experimental: as §1

[6] = target: T3, Anti-PSMA Fab (SEQ ID NOs: 19, 20); assay: phage ELISA; biotinylated PSMA Fab on neutravidin plate, clonal phage supernatant, anti-M13 HRP detection;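 note: wells preincubated with PSMA antigen in blocking buffer or with blocking buffer only before clonal phage were added for a short incubation, then bound phage detected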
Experimental: as §1

Row | Binder | Phage binding ELISA, Anti-PSMA Fab signal in the presence of PSMA [1] | Phage binding ELISA, Anti-PSMA Fab (SEQ ID NOs: 19, 20) signal [2] | Anti-PSMA Fab (SEQ ID NOs: 19, 20) signal [3] | Anti-PSMA Fab signal in the presence of PSMA [4] | other results
1 | YVNWCTPEWMCVGF (Clonal phage of the peptide-180 library, tested as crude supernatant; not shown: pIII of the bacteriophage, to which the peptide is fused) [Phage-2174] | 0.0598 | 1.64 |  |  | 
2 | EPKLCRPAWMCVGM (tested as crude clonal phage supernatant) [Phage-2179] |  |  | 1.64 | 0.0704 | 
3 | IEKWCTPAWMCYGI (Clonal phage of the Peptide-180 library, tested as crude supernatant; not shown: fused to the pIII filament of the bacteriophage) [Phage-2152] |  |  |  |  | Phage binding ELISA, Anti-PSMA Fab signal in the presence of PSMA [5]: 0.077; Phage binding ELISA, Anti-PSMA Fab (SEQ ID NOs: 19, 20) signal [6]: 1.68
4 | EGRWCIPSWMCVGV (Clonal phage of the Peptide-180 library, tested as crude supernatant; not shown: fused to the pIII filament of the bacteriophage) [Phage-2155] |  |  |  |  | Phage binding ELISA, Anti-PSMA Fab signal in the presence of PSMA [5]: 0.0956; Phage binding ELISA, Anti-PSMA Fab (SEQ ID NOs: 19, 20) signal [6]: 1.67
5 | EMKWCIPDWMCAAG (Clonal phage of the Peptide-180 library, tested as crude supernatant; not shown: fused to the pIII filament of the bacteriophage) [Phage-2161] |  |  |  |  | Phage binding ELISA, Anti-PSMA Fab signal in the presence of PSMA [5]: 0.0716; Phage binding ELISA, Anti-PSMA Fab (SEQ ID NOs: 19, 20) signal [6]: 1.66
6 | ETKWCFPPWMCAGS (Clonal phage of the Peptide-180 library, tested as crude supernatant; not shown: fused to the pIII filament of the bacteriophage) [Phage-2159] |  |  |  |  | Phage binding ELISA, Anti-PSMA Fab signal in the presence of PSMA [5]: 0.337; Phage binding ELISA, Anti-PSMA Fab (SEQ ID NOs: 19, 20) signal [6]: 1.66
7 | LDKWCTPEWMCWGI (Clonal phage of the Peptide-180 library, tested as crude supernatant; not shown: fused to the pIII filament of the bacteriophage) [Phage-2154] |  |  |  |  | Phage binding ELISA, Anti-PSMA Fab signal in the presence of PSMA [5]: 0.0536; Phage binding ELISA, Anti-PSMA Fab (SEQ ID NOs: 19, 20) signal [6]: 1.67
8 | ENKWCIPTWMCAHE (cysteine pairing not given here; also: displayed on phage, fused to pIII, Clonal phage of the peptide-180 library, tested as crude supernatant; not shown: pIII of the bacteriophage, to which the peptide is fused) [Phage-2173] | 0.0646 | 1.64 |  |  | 
9 | DVIRCTPDWMCTGF (Clonal phage of the Peptide-180 library, tested as crude supernatant; not shown: fused to the pIII filament of the bacteriophage) [Phage-2157] |  |  |  |  | Phage binding ELISA, Anti-PSMA Fab signal in the presence of PSMA [5]: 0.064; Phage binding ELISA, Anti-PSMA Fab (SEQ ID NOs: 19, 20) signal [6]: 1.66
10 | ESMLCRPVWMCVGF (Clonal phage of the peptide-180 library, tested as crude supernatant; not shown: pIII of the bacteriophage, to which the peptide is fused) [Phage-2169] | 0.0711 | 1.65 |  |  | 
11 | MAMMCIPPWMCDTM (Clonal phage of the peptide-180 library, tested as crude supernatant; not shown: pIII of the bacteriophage, to which the peptide is fused) [Phage-2172] | 0.0889 | 1.65 |  |  | 
12 | WYKWCTPAWMCEFT (tested as crude clonal phage supernatant) [Phage-2189] |  |  | 1.63 | 0.145 | 
13 | SLHLCIPQWMCGIS (cysteine pairing not given here; also: displayed on bacteriophage as fusion to pIII, tested as crude clonal phage supernatant) [Phage-2177] |  |  | 1.64 | 0.0806 | 
14 | GSHWCIPPWMCQMS (Clonal phage of the peptide-180 library, tested as crude supernatant; not shown: pIII of the bacteriophage, to which the peptide is fused) [Phage-2163] | 0.0821 | 1.66 |  |  | 
15 | WSKSCTPAWMCEGF (tested as crude clonal phage supernatant) [Phage-2185] |  |  | 1.63 | 0.0843 | 
16 | GEKWCIPEWMCVHL (Clonal phage of the peptide-180 library, tested as crude supernatant; not shown: pIII of the bacteriophage, to which the peptide is fused) [Phage-2168] | 0.065 | 1.65 |  |  | 
17 | EFKWCIPAWMCTAA (tested as crude clonal phage supernatant) [Phage-2186] |  |  | 1.63 | 0.0998 | 
18 | LDKLCIPSWMCWSH (tested as crude clonal phage supernatant) [Phage-2181] |  |  | 1.64 | 0.0713 | 
19 | EHKWCIPDWMCMVA (Clonal phage of the Peptide-180 library, tested as crude supernatant; not shown: fused to the pIII filament of the bacteriophage) [Phage-2153] |  |  |  |  | Phage binding ELISA, Anti-PSMA Fab signal in the presence of PSMA [5]: 0.0728; Phage binding ELISA, Anti-PSMA Fab (SEQ ID NOs: 19, 20) signal [6]: 1.67

Row | Binder | Phage binding ELISA, Anti-PSMA Fab signal in the presence of PSMA [1] | Phage binding ELISA, Anti-PSMA Fab (SEQ ID NOs: 19, 20) signal [2] | Anti-PSMA Fab (SEQ ID NOs: 19, 20) signal [3] | Anti-PSMA Fab signal in the presence of PSMA [4] | other results
20 | VSKWCTPEWMCTGF (Clonal phage of the Peptide-180 library, tested as crude supernatant; not shown: fused to the pIII filament of the bacteriophage) [Phage-2156] |  |  |  |  | Phage binding ELISA, Anti-PSMA Fab signal in the presence of PSMA [5]: 0.0826; Phage binding ELISA, Anti-PSMA Fab (SEQ ID NOs: 19, 20) signal [6]: 1.67
21 | AMHWCIPKWMCETS (Clonal phage of the Peptide-180 library, tested as crude supernatant; not shown: fused to the pIII filament of the bacteriophage) [Phage-2160] |  |  |  |  | Phage binding ELISA, Anti-PSMA Fab signal in the presence of PSMA [5]: 0.141; Phage binding ELISA, Anti-PSMA Fab (SEQ ID NOs: 19, 20) signal [6]: 1.66
22 | VIPWCIPEWMCTAS (Clonal phage of the peptide-180 library, tested as crude supernatant; not shown: pIII of the bacteriophage, to which the peptide is fused) [Phage-2175] | 0.0692 | 1.64 |  |  | 
23 | EVKLCRPPWMCEIF (Clonal phage of the peptide-180 library, tested as crude supernatant; not shown: pIII of the bacteriophage, to which the peptide is fused) [Phage-2162] | 0.0633 | 1.66 |  |  | 
24 | HEKLCIPWWMCEDH (tested as crude clonal phage supernatant) [Phage-2182] |  |  | 1.64 | 0.0868 | 
25 | GDRLCVPEWMCEML (Clonal phage of the peptide-180 library, tested as crude supernatant; not shown: pIII of the bacteriophage, to which the peptide is fused) [Phage-2171] | 0.0685 | 1.65 |  |  | 
26 | VQKWCVPEWMCGSW (Clonal phage of the peptide-180 library, tested as crude supernatant; not shown: pIII of the bacteriophage, to which the peptide is fused) [Phage-2167] | 0.0837 | 1.65 |  |  | 
27 | VEHWCTPRWMCRGF (Clonal phage of the peptide-180 library, tested as crude supernatant; not shown: pIII of the bacteriophage, to which the peptide is fused) [Phage-2176] | 0.0605 | 1.64 |  |  | 
28 | TEKWCIPEWMCAHQ (cysteine pairing not given here; also: displayed on bacteriophage as fusion to pIII, tested as crude clonal phage supernatant) [Phage-2184] |  |  | 1.63 | 0.0839 | 
29 | VVPWCIPVWMCNSQ (Clonal phage of the peptide-180 library, tested as crude supernatant; not shown: pIII of the bacteriophage, to which the peptide is fused) [Phage-2165] | 0.0957 | 1.65 |  |  | 
30 | LSHWCSPQWMCSGF (tested as crude clonal phage supernatant) [Phage-2188] |  |  | 1.63 | 0.0932 | 
31 | LIKWCTPPWMCEQL (tested as crude clonal phage supernatant) [Phage-2180] |  |  | 1.64 | 0.0655 | 
32 | DENWCKPLWMCKGF (Clonal phage of the peptide-180 library, tested as crude supernatant; not shown: pIII of the bacteriophage, to which the peptide is fused) [Phage-2170] | 0.105 | 1.65 |  |  | 
33 | FERWCIPAWMCQSD (Clonal phage of the Peptide-180 library, tested as crude supernatant; not shown: fused to the pIII filament of the bacteriophage) [Phage-2158] |  |  |  |  | Phage binding ELISA, Anti-PSMA Fab signal in the presence of PSMA [5]: 0.066; Phage binding ELISA, Anti-PSMA Fab (SEQ ID NOs: 19, 20) signal [6]: 1.66
34 | EIKWCTPAWMCEGF (tested as crude clonal phage supernatant) [Phage-2187] |  |  | 1.63 | 0.0762 | 
35 | VHMRCIPEWMCQVF (tested as crude clonal phage supernatant) [Phage-2183] |  |  | 1.63 | 0.071 | 
36 | ITKWCTPAWMCAHL (cysteine pairing not given here; also: displayed on bacteriophage as fusion to pIII, tested as crude clonal phage supernatant) [Phage-2178] |  |  | 1.64 | 0.0904 | 
37 | DIRWCIPDWMCTET (Clonal phage of the peptide-180 library, tested as crude supernatant; not shown: pIII of the bacteriophage, to which the peptide is fused) [Phage-2164] | 0.0725 | 1.65 |  |  | 
38 | YEKWCTPAWMCEYQ (Clonal phage of the peptide-180 library, tested as crude supernatant; not shown: pIII of the bacteriophage, to which the peptide is fused) [Phage-2166] | 0.0648 | 1.65 |  |  | 
